{"source": "paper PMC9781609", "about": "(Pharmaceutics, 2022)", "key": {"[1]": {"assay": "in vivo", "conditions": "male, athymic nude, mouse, total radioactivity", "description": "All animal procedures were approved by the University of Alabama at Birmingham IACUC, animal protocol number IACUC-22618. Male athymic nude mice (Charles River, Wilmington, MA, USA) were allowed to acclimate for at least 72 h before any procedures were performed. For tumor implantation, mice were subcutaneously injected with 300,000 HT29 cells 3 weeks before imaging. […] Mice were imaged on a GNEXT microPET/CT (Sophie, Springfield, VA, USA). After the last imaging timepoint, mice were euthanized and organs were taken for biodistribution. Organ weights and radioactive counting were collected on a Hidex gamma counter (Lablogic, Clair-Mel City, FL, USA). Images were processed and SUVs were calculated using VivoQuant software (Invicro, Boston, MA, USA)."}, "[2]": {"conditions": "endogenous peptide; cited from earlier work", "description": "Neurotensin receptor imaging has emerged as a promising target for imaging and therapy. The endogenous neurotensin peptide has a short half-life in blood (<6 min), limiting its direct radiolabeling and use. Most developments in neurotensin receptor imaging have been focused on increasing serum stability and improving specificity for NTSR1 [1]. Previously, neurotensin receptor binding peptides have been investigated as imaging and therapeutic agents when radiolabeled with technetium-99m, indium-111, gallium-68, copper-64, actinium-225, and leutetium-177 [10, 11, 12, 13]. Specif ..."}}, "data": [{"compound": "CC(=O)N[C@@H](CCCCNC(=O)CN1CCN(CC(=O)O)CCN(CC(=O)O)CC1)C(=O)N1CCC[C@H]1C(=O)N(C)[C@@H](CCCNC(=N)N)C(=O)N[C@@H](CCCNC(=N)N)C(=O)N1CCC[C@H]1C(=O)N[C@@H](Cc1ccc(O)cc1)C(=O)N[C@H](C(=O)N[C@@H](CC(C)C)C(=O)O)C(C)(C)C", "note": "[[^64Cu] Cu-NOTA-NT-20.3, metal not drawn]", "values": [{"measurement": "SUV at 1 h", "setting": "[1]; liver SUV", "value": "0.123 ± 0.029", "unit": "SUV"}, {"measurement": "SUV at 4 h", "setting": "[1]; liver SUV", "value": "0.178 ± 0.042", "unit": "SUV"}, {"measurement": "SUV at 24 h", "setting": "[1]; liver SUV", "value": "0.168 ± 0.056", "unit": "SUV"}]}, {"compound": "neurotensin peptide: 13-amino-acid peptide which binds to neurotensin receptors 1–3", "values": [{"measurement": "half-life in blood", "setting": "[2]", "value": "< 6", "unit": "min"}]}, {"compound": "CC(=O)N[C@@H](CCCCNC(=O)CN1CCN(CC(=O)O)CCN(CC(=O)O)CC1)C(=O)N1CCC[C@H]1C(=O)N(C)[C@@H](CCCNC(=N)N)C(=O)N[C@@H](CCCNC(=N)N)C(=O)N1CCC[C@H]1C(=O)N[C@@H](Cc1ccc(O)cc1)C(=O)N[C@H](C(=O)N[C@@H](CC(C)C)C(=O)O)C(C)(C)C", "note": "[[^55Co] Co-NOTA-NT-20.3]", "values": [{"measurement": "SUV at 1 h", "setting": "[1]; 1 ug, heart SUV", "value": "0.033 ± 0.002", "unit": "SUV"}, {"measurement": "SUV at 4 h", "setting": "[1]; 1 ug, heart SUV", "value": "0.015 ± 0.002", "unit": "SUV"}, {"measurement": "SUV at 24 h", "setting": "[1]; 1 ug, heart SUV", "value": "0.004 ± 0.001", "unit": "SUV"}]}]}
